From the supplement of paper PMC10065799, “High-throughput profiling of sequence recognition by tyrosine kinases and SH2 domains using bacterial peptide display” (eLife, 2023)
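Also: 11-residue human phosphosite peptides and single-mutation variants displayed on the E. coli surface, counted by deep sequencing, each peptide's frequency after selection divided by its frequency in the unselected input library; frequency after pTyr selection over input frequency; kinase dosed for 20-30% of maximal phosphorylation in three min.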

The sequences below were run against Hck (UniProt P08631) (assay: phosphorylation enrichment, bacterial display (enrichment ratio); higher = better substrate or ligand; peptides without Tyr show the background).
Chain of Hck (P08631 whole entry, looked up): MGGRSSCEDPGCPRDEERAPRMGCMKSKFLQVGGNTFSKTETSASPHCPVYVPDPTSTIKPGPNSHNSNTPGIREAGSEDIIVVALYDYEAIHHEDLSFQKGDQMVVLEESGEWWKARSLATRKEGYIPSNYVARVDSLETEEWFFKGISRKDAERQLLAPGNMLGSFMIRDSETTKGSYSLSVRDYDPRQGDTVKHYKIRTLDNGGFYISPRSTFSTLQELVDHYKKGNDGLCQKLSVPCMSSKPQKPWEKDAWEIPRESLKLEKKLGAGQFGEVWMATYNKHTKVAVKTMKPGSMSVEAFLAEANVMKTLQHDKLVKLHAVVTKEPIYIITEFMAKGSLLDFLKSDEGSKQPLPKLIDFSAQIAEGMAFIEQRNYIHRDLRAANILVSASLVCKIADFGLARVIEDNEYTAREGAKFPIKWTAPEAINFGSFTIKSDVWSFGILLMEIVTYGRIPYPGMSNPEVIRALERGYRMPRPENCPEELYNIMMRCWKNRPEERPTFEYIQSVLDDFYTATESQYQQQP
EKLQKYFRQNP [EHHADH_Y682_YF] was tested, and the phosphorylation enrichment was 0.351.
With DLVHPYVHKIL [SF3B1_Y570_R568H] the phosphorylation enrichment was 0.432.
ASKEPYYVRCI [MYO1D_Y585] showed a phosphorylation enrichment of 0.464.
MGGSVYFSYPD [HIKESHI_Y55] gave a phosphorylation enrichment of 1.65.
FSCLPCGRLAY [SLC52A2_Y305_Y305C] showed a phosphorylation enrichment of 0.431.
AFLEDYFTSTK [SRC_Y522_E527K] showed a phosphorylation enrichment of 0.52.
With ERPIRYLNHQL [CEP152_Y268_Q265P] the phosphorylation enrichment was 0.393.
QKKEEYKMALY [F8_Y1990_R1985Q] gave a phosphorylation enrichment of 0.496.
In the case of SGVSFYINLCQ [IGF2R_Y2025_N2020S_YF], the phosphorylation enrichment is reported as 0.481.
Sequence NTDETYSIDNE [TUBB2B_Y200_C201S] has a phosphorylation enrichment of 0.694.
With LKFAIYFEVRE [LAMA2_Y1258_A1261V_YF] the phosphorylation enrichment was 0.569.
For RPSRQYATLDV [SCAMP3_Y35], the phosphorylation enrichment was 0.376.
For TEAGDYKLCFD [TMED1_Y103], the phosphorylation enrichment was 0.564.
Work on GGPTFYIDTNA [ACTL6A_Y69_YF] yielded a phosphorylation enrichment of 0.53.
For PRPAGYPSMVS [CACNA1C_Y1832_T1835M], the phosphorylation enrichment was 0.456.
Work on RGLQVYHKRNA [LRP2_Y2010_R2012K] yielded a phosphorylation enrichment of 0.59.
With TLAHKYHGGGG [HBB_Y146_A141T] the phosphorylation enrichment was 0.681.
For NVGGKYSYLKV [GRM3_Y478], the phosphorylation enrichment was 0.515.
Sequence PELINYHQHNS [BTK_Y361] has a phosphorylation enrichment of 0.69.
SPFMLYQFLKQ [RPAP3_Y567_D564Y_YF] gave a phosphorylation enrichment of 4.2.
Work on RFWPRYVKVGS [NOG_Y172] yielded a phosphorylation enrichment of 0.726.
In the case of KAIMTYVPSFF [ACTN4_Y260_S262P_YF], the phosphorylation enrichment is reported as 0.497.
With EASEQHLTKAS [NRCAM_Y739_Y739H] the phosphorylation enrichment was 0.447.
EACRSYSHVVL [CHST6_Y168] gave a phosphorylation enrichment of 0.548.
Sequence SDFSSYARTSI [TERT_Y949_YF] has a phosphorylation enrichment of 0.453.
RLYARYFQGDL [PDK3_Y337] was tested, and the phosphorylation enrichment was 0.511.
Work on FLAVEYHKPHI [IDS_Y225_G224E] yielded a phosphorylation enrichment of 0.38.
With ETCLAYMEKRI [TEKT1_Y118_R119M] the phosphorylation enrichment was 0.56.
Sequence DFAIVYGTIIL [GPR179_Y460_G455D] has a phosphorylation enrichment of 0.665.
AKGMKYVASKK [MET_Y1194_L1195V] gave a phosphorylation enrichment of 0.425.
In the case of LWPIWYRCRRP [MRGPRX1_Y130_H133R], the phosphorylation enrichment is reported as 0.805.
For KKMKCYHVGKV [HARS2_Y151_R150C], the phosphorylation enrichment was 0.383.
With PADCRYYAFPQ [GAMT_Y222] the phosphorylation enrichment was 3.84.

What follows are sequences tested against Jak2 (UniProt O60674) in the same assay as above.
Chain of Jak2 (O60674 whole entry, looked up): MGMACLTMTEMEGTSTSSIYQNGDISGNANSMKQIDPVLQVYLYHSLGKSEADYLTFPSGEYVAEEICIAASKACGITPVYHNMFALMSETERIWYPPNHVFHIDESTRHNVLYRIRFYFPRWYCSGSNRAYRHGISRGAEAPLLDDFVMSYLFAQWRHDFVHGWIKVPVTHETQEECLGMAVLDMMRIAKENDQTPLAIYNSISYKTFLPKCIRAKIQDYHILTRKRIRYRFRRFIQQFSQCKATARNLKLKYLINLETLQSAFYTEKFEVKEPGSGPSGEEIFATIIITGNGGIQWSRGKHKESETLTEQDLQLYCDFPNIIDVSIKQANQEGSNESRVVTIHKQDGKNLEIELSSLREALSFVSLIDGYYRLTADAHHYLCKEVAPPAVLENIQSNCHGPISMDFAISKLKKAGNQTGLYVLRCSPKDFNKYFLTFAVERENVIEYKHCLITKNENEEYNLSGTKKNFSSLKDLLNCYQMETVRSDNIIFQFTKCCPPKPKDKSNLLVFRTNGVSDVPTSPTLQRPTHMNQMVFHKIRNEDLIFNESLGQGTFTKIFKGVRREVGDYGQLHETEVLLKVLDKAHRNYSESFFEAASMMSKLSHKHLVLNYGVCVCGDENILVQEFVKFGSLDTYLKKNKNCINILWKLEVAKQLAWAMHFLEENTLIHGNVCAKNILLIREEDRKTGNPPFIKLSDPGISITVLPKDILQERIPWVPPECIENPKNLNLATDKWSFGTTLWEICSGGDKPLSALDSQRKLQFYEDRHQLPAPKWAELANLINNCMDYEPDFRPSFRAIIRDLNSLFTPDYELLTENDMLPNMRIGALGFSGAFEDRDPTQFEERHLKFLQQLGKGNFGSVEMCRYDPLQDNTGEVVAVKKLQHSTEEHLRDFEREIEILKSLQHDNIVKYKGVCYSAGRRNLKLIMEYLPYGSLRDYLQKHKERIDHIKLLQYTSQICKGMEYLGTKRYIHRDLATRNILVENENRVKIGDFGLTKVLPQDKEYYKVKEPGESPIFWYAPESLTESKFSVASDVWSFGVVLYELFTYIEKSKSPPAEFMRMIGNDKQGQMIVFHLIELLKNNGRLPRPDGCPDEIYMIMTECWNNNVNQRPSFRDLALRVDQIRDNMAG
Sequence EKLQKYFRQNP [EHHADH_Y682_YF] has a phosphorylation enrichment of 0.549.
With DLVHPYVHKIL [SF3B1_Y570_R568H] the phosphorylation enrichment was 1.03.
ASKEPYYVRCI [MYO1D_Y585] was tested, and the phosphorylation enrichment was 1.21.
MGGSVYFSYPD [HIKESHI_Y55] showed a phosphorylation enrichment of 1.09.
In the case of FSCLPCGRLAY [SLC52A2_Y305_Y305C], the phosphorylation enrichment is reported as 0.724.
In the case of AFLEDYFTSTK [SRC_Y522_E527K], the phosphorylation enrichment is reported as 1.26.
For ERPIRYLNHQL [CEP152_Y268_Q265P], the phosphorylation enrichment was 0.476.
With QKKEEYKMALY [F8_Y1990_R1985Q] the phosphorylation enrichment was 1.63.
In the case of SGVSFYINLCQ [IGF2R_Y2025_N2020S_YF], the phosphorylation enrichment is reported as 1.61.
With NTDETYSIDNE [TUBB2B_Y200_C201S] the phosphorylation enrichment was 1.23.
For LKFAIYFEVRE [LAMA2_Y1258_A1261V_YF], the phosphorylation enrichment was 2.52.
With RPSRQYATLDV [SCAMP3_Y35] the phosphorylation enrichment was 0.42.
TEAGDYKLCFD [TMED1_Y103] was tested, and the phosphorylation enrichment was 1.27.
GGPTFYIDTNA [ACTL6A_Y69_YF] gave a phosphorylation enrichment of 1.13.
Work on PRPAGYPSMVS [CACNA1C_Y1832_T1835M] yielded a phosphorylation enrichment of 0.475.
Work on RGLQVYHKRNA [LRP2_Y2010_R2012K] yielded a phosphorylation enrichment of 0.654.
With TLAHKYHGGGG [HBB_Y146_A141T] the phosphorylation enrichment was 1.1.
Sequence NVGGKYSYLKV [GRM3_Y478] has a phosphorylation enrichment of 0.635.
Sequence PELINYHQHNS [BTK_Y361] has a phosphorylation enrichment of 1.
Work on SPFMLYQFLKQ [RPAP3_Y567_D564Y_YF] yielded a phosphorylation enrichment of 1.07.
Work on RFWPRYVKVGS [NOG_Y172] yielded a phosphorylation enrichment of 0.622.
For KAIMTYVPSFF [ACTN4_Y260_S262P_YF], the phosphorylation enrichment was 0.678.
In the case of EASEQHLTKAS [NRCAM_Y739_Y739H], the phosphorylation enrichment is reported as 0.692.
Sequence EACRSYSHVVL [CHST6_Y168] has a phosphorylation enrichment of 0.602.
SDFSSYARTSI [TERT_Y949_YF] gave a phosphorylation enrichment of 0.798.
RLYARYFQGDL [PDK3_Y337] was tested, and the phosphorylation enrichment was 1.57.
Work on FLAVEYHKPHI [IDS_Y225_G224E] yielded a phosphorylation enrichment of 1.05.
In the case of ETCLAYMEKRI [TEKT1_Y118_R119M], the phosphorylation enrichment is reported as 1.17.
For DFAIVYGTIIL [GPR179_Y460_G455D], the phosphorylation enrichment was 1.16.
For AKGMKYVASKK [MET_Y1194_L1195V], the phosphorylation enrichment was 0.5.
LWPIWYRCRRP [MRGPRX1_Y130_H133R] gave a phosphorylation enrichment of 0.408.
Sequence KKMKCYHVGKV [HARS2_Y151_R150C] has a phosphorylation enrichment of 0.588.
With PADCRYYAFPQ [GAMT_Y222] the phosphorylation enrichment was 6.5.

These sequences were tested against MERTK (UniProt Q12866) in the same assay as above.
Chain of MERTK (Q12866 whole entry, looked up): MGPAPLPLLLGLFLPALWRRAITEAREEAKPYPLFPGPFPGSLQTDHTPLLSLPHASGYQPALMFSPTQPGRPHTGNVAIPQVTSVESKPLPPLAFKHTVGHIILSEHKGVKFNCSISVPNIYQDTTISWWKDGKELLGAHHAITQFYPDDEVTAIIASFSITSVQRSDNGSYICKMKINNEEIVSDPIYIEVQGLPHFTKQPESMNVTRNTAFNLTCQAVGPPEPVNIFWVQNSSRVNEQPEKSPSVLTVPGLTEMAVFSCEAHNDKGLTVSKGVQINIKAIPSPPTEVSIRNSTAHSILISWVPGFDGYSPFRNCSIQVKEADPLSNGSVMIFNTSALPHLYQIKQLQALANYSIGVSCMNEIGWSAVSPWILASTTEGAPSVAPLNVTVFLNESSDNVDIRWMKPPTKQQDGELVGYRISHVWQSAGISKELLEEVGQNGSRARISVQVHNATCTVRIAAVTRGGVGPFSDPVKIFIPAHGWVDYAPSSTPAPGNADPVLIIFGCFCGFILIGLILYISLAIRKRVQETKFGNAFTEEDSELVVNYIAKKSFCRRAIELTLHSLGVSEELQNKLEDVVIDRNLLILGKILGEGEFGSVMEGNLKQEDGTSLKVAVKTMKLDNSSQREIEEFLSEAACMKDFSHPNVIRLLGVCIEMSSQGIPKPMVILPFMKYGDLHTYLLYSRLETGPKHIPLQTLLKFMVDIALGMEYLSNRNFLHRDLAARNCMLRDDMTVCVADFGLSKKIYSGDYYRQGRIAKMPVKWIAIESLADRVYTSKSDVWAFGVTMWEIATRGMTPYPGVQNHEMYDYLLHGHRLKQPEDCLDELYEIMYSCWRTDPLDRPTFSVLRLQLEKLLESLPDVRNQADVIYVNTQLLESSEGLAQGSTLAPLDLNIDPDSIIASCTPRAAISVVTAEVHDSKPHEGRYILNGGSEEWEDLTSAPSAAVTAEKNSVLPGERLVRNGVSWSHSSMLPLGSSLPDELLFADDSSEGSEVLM
For EKLQKYFRQNP [EHHADH_Y682_YF], the phosphorylation enrichment was 0.354.
Work on DLVHPYVHKIL [SF3B1_Y570_R568H] yielded a phosphorylation enrichment of 0.435.
In the case of ASKEPYYVRCI [MYO1D_Y585], the phosphorylation enrichment is reported as 0.618.
MGGSVYFSYPD [HIKESHI_Y55] showed a phosphorylation enrichment of 1.36.
Work on FSCLPCGRLAY [SLC52A2_Y305_Y305C] yielded a phosphorylation enrichment of 0.688.
AFLEDYFTSTK [SRC_Y522_E527K] gave a phosphorylation enrichment of 0.504.
With ERPIRYLNHQL [CEP152_Y268_Q265P] the phosphorylation enrichment was 0.497.
Work on QKKEEYKMALY [F8_Y1990_R1985Q] yielded a phosphorylation enrichment of 0.693.
SGVSFYINLCQ [IGF2R_Y2025_N2020S_YF] showed a phosphorylation enrichment of 0.686.
NTDETYSIDNE [TUBB2B_Y200_C201S] was tested, and the phosphorylation enrichment was 0.5.
LKFAIYFEVRE [LAMA2_Y1258_A1261V_YF] gave a phosphorylation enrichment of 0.808.
With RPSRQYATLDV [SCAMP3_Y35] the phosphorylation enrichment was 0.379.
With TEAGDYKLCFD [TMED1_Y103] the phosphorylation enrichment was 0.496.
With GGPTFYIDTNA [ACTL6A_Y69_YF] the phosphorylation enrichment was 0.41.
In the case of PRPAGYPSMVS [CACNA1C_Y1832_T1835M], the phosphorylation enrichment is reported as 0.365.
Work on RGLQVYHKRNA [LRP2_Y2010_R2012K] yielded a phosphorylation enrichment of 0.496.
TLAHKYHGGGG [HBB_Y146_A141T] was tested, and the phosphorylation enrichment was 0.577.
For NVGGKYSYLKV [GRM3_Y478], the phosphorylation enrichment was 0.448.
Work on PELINYHQHNS [BTK_Y361] yielded a phosphorylation enrichment of 0.579.
Sequence SPFMLYQFLKQ [RPAP3_Y567_D564Y_YF] has a phosphorylation enrichment of 4.11.
With RFWPRYVKVGS [NOG_Y172] the phosphorylation enrichment was 0.46.
In the case of KAIMTYVPSFF [ACTN4_Y260_S262P_YF], the phosphorylation enrichment is reported as 0.487.
In the case of EASEQHLTKAS [NRCAM_Y739_Y739H], the phosphorylation enrichment is reported as 0.343.
For EACRSYSHVVL [CHST6_Y168], the phosphorylation enrichment was 0.463.
In the case of SDFSSYARTSI [TERT_Y949_YF], the phosphorylation enrichment is reported as 0.477.
Sequence RLYARYFQGDL [PDK3_Y337] has a phosphorylation enrichment of 0.711.
For FLAVEYHKPHI [IDS_Y225_G224E], the phosphorylation enrichment was 0.302.
ETCLAYMEKRI [TEKT1_Y118_R119M] was tested, and the phosphorylation enrichment was 0.406.
With DFAIVYGTIIL [GPR179_Y460_G455D] the phosphorylation enrichment was 0.402.
Work on AKGMKYVASKK [MET_Y1194_L1195V] yielded a phosphorylation enrichment of 0.349.
Sequence LWPIWYRCRRP [MRGPRX1_Y130_H133R] has a phosphorylation enrichment of 0.685.
KKMKCYHVGKV [HARS2_Y151_R150C] gave a phosphorylation enrichment of 0.423.
PADCRYYAFPQ [GAMT_Y222] gave a phosphorylation enrichment of 14.4.

Each sequence was assayed on c-Abl (mouse) in the same assay as above.
EKLQKYFRQNP [EHHADH_Y682_YF] was tested, and the phosphorylation enrichment was 0.942.
Work on DLVHPYVHKIL [SF3B1_Y570_R568H] yielded a phosphorylation enrichment of 0.655.
ASKEPYYVRCI [MYO1D_Y585] was tested, and the phosphorylation enrichment was 1.19.
For MGGSVYFSYPD [HIKESHI_Y55], the phosphorylation enrichment was 0.752.
FSCLPCGRLAY [SLC52A2_Y305_Y305C] showed a phosphorylation enrichment of 0.584.
Sequence AFLEDYFTSTK [SRC_Y522_E527K] has a phosphorylation enrichment of 0.591.
ERPIRYLNHQL [CEP152_Y268_Q265P] showed a phosphorylation enrichment of 0.552.
QKKEEYKMALY [F8_Y1990_R1985Q] showed a phosphorylation enrichment of 0.902.
SGVSFYINLCQ [IGF2R_Y2025_N2020S_YF] showed a phosphorylation enrichment of 1.04.
NTDETYSIDNE [TUBB2B_Y200_C201S] showed a phosphorylation enrichment of 0.886.
In the case of LKFAIYFEVRE [LAMA2_Y1258_A1261V_YF], the phosphorylation enrichment is reported as 1.74.
In the case of RPSRQYATLDV [SCAMP3_Y35], the phosphorylation enrichment is reported as 0.381.
Work on TEAGDYKLCFD [TMED1_Y103] yielded a phosphorylation enrichment of 0.888.
Sequence GGPTFYIDTNA [ACTL6A_Y69_YF] has a phosphorylation enrichment of 0.775.
PRPAGYPSMVS [CACNA1C_Y1832_T1835M] showed a phosphorylation enrichment of 0.435.
RGLQVYHKRNA [LRP2_Y2010_R2012K] gave a phosphorylation enrichment of 0.561.
Sequence TLAHKYHGGGG [HBB_Y146_A141T] has a phosphorylation enrichment of 1.03.
Sequence NVGGKYSYLKV [GRM3_Y478] has a phosphorylation enrichment of 0.524.
PELINYHQHNS [BTK_Y361] was tested, and the phosphorylation enrichment was 0.561.
Sequence SPFMLYQFLKQ [RPAP3_Y567_D564Y_YF] has a phosphorylation enrichment of 0.938.
Work on RFWPRYVKVGS [NOG_Y172] yielded a phosphorylation enrichment of 0.691.
KAIMTYVPSFF [ACTN4_Y260_S262P_YF] was tested, and the phosphorylation enrichment was 0.647.
EASEQHLTKAS [NRCAM_Y739_Y739H] was tested, and the phosphorylation enrichment was 0.663.
EACRSYSHVVL [CHST6_Y168] was tested, and the phosphorylation enrichment was 0.881.
For SDFSSYARTSI [TERT_Y949_YF], the phosphorylation enrichment was 0.55.
In the case of RLYARYFQGDL [PDK3_Y337], the phosphorylation enrichment is reported as 1.18.
Sequence FLAVEYHKPHI [IDS_Y225_G224E] has a phosphorylation enrichment of 1.6.
ETCLAYMEKRI [TEKT1_Y118_R119M] showed a phosphorylation enrichment of 0.818.
DFAIVYGTIIL [GPR179_Y460_G455D] showed a phosphorylation enrichment of 0.846.
Sequence AKGMKYVASKK [MET_Y1194_L1195V] has a phosphorylation enrichment of 0.451.
Work on LWPIWYRCRRP [MRGPRX1_Y130_H133R] yielded a phosphorylation enrichment of 0.542.
Work on KKMKCYHVGKV [HARS2_Y151_R150C] yielded a phosphorylation enrichment of 0.627.
For PADCRYYAFPQ [GAMT_Y222], the phosphorylation enrichment was 5.14.
